Columns and labels:
[1] = test system: MCF7 cells; assay: Chromium-release cytotoxicity assay, MCF7 cells and survivin-specific CTL; assay type: cell-based; settings: MCF7 cells pre-treated with 250 ng/ml PTX for 1 h, compared to CCR9 gene knockdown
Method: (§1) Tumor cells were transfected with the described siRNAs using RNAiMAX or with pCMV6-AC-His-CCR9 encoding vector and empty control vector (OriGene, Rockville, USA) using TransIT-LT1. 72 h later, transfected cells were harvested for chromium-release cytotoxicity assay as detailed in Supplementary Methods. For CCR9 blockade using pertussis toxin (PTX), […] tumor cells were incubated with 250 ng/ml of PTX (Sigma Aldrich) for 1 h at 37° C. before labeling with radioactive chromium.

[2] = test system: CCR9+ tumor cells; assay: Transwell migration assay toward CCL25; assay type: cell-based
[3] = test system: CCL25; assay: ELISA of CCL25 levels in tumor cell lysates; assay type: cell-based; settings: stable knockdown
[4] = test system: M579-A2 tumor cells; assay: Chromium-release cytotoxicity assay, M579-A2 melanoma cells and TIL 209; assay type: cell-based, human; settings: stable CCR9 knockdown M579-A2 versus shControl
Text: MCF7, MDA-MB-231 (breast cancer), and PANC-1 pancreatic cancer cells were acquired from American Type Cell Culture (Wesel, Germany). MCF7luc cells were generated by electroporation with pEGFP-Luc plasmid and expansion of sorted GFP+ clones in selection medium containing […] G418 (Gibco, UK). M579-A2 melanoma culture was established from a patient and stably transfected with HLA-A2 expression construct as described before (Machlenkin et al, 2008). For stable CCR9 knockdown, lentiviral particles were produced using the pRSI9-U6-TagRFP-2APuro lentiviral expression vector (Cellecta) that contained either the CCR9-specific shRNA hairpin ([…]: SEQ ID NO. 5) or control nontargeting shRNA. Viruses were packaged using the psPAX2 and pMD2.G packaging plasmids (Addgene), and tumor cell lines were transduced with the viral particles as per the manufacturer's protocol.
as §1

[5] = test system: HLA-A2; assay: Surface HLA-A2 expression on M579-A2 cells; assay type: cell-based, human; settings: M579-A2 upon CCR9 knockdown
[6] = test system: M579-A2 tumors; assay: In vivo M579-A2 tumor growth in NSG mice with adoptive TIL 209 transfer
Method: Appropriate approval for animal work was obtained from the regulatory authorities (Regierungsprasidium, Karlsruhe) before the start of the experiment. Four- to six-week-old female NSG mice were ordered from the Animal Core Facility at DKFZ, Heidelberg. Mice were subcutaneously injected with 5×10^5 cells (in 100 μl of matrigel per injection) of each CCR9-M579-A2 (transduced with CCR9-specific shRNA) and CCR9+M579-A2 (transduced with non-targeting control shRNA) cell lines in the left and the right flank, respectively. Following this, at Day 2 and Day 9, 7 out of the 10 tumor-bearing mice received adoptive transfer of expanded TIL 209 cells intravenously into the tail vein (1×10^7 cells/100 μl PBS/mouse). The remaining three mice were injected with PBS alone to assess tumor growth in the absence of adoptive TIL transfer. Tumor measurements were performed using a digital caliper (Carl Roth) at the indicated time points, and tumor volume was measured using the formula: volume=height*width*width*(n/3).
Differences between test and control groups were analyzed by two-sided Student's t-test. In all statistical tests, a P-value <0.05 was considered significant. Statistical difference between the tumor growth curves in vivo was assessed using the unpaired one-sided Mann-Whitney U-test.

Row | Molecule | Tumor lysis by antigen-specific T cells [1] | Migration of CCR9+ tumor cells toward CCL25 [2] | CCL25 production by MCF7 breast cancer cells [3] | Immune lysis by tumor-infiltrating lymphocytes (TIL 209) [4] | Surface HLA-A2 expression [5] | Tumor growth kinetic without T cell transfer ([6]; CCR9- versus CCR9+ M579-A2 tumors in NSG mice given PBS alone) | Tumor growth in response to adoptive T cell transfer ([6]; CCR9- versus CCR9+ M579-A2 tumors s.c. in NSG mice, TIL 209 i.v. at Day 2 and Day 9)
1 | pertussis toxin | did not elicit elevated tumor lysis | inhibited the migration | – | – | – | – | –
2 | CCR9-specific shRNA (nucleic acid) DNA: ACCGGGCCAGTGGAGGTCTTTGTTCTGTTAATATTCATAGCAGAACAAGGACCTTCACTGGCTTTT | – | – | did not affect | more susceptible to immune lysis | no significant difference | No difference | grew significantly slower

From US20200164068A1, “MODULATORS OF TUMOR IMMUNE RESISTANCE FOR THE TREATMENT OF CANCER” (DEUTSCHES KREBSFORSCHUNGSZENTRUM STIFTUNG DES ÖFFENTLICHEN …, priority 2016, published 2020)
